Measurements published in publication doi:10.1101/2023.09.22.558821.

Molecular target: murine CIZ1 C-terminal fragment C181 (terminal 181 amino-acids) (mouse)
Assay: SEC-MALS

Substance “murine CIZ1 C-terminal fragment C181 (terminal 181 amino-acids) (domain or fragment)” has a stoichiometry N of 2.
